Data taken from patent US20250313625A1 (ELPISCIENCE SUZHOU BIOPHARMA, published 2025).
Substitutions are numbered along the chain they refer to. Numbers in names are those of the source. Read-outs that look alike come from different tables or passages of the source. One block for each binder: values may come before it.

What was measured:
[1] = biological target: T1, hFc tagged human LAG3 ECD recombinant protein (human, UniProt P18627 23-450); assay: competitive ELISA format II: biotin hFc-LAG3 ECD binding to coated His-FGL1
T1 construct: range 23-450; also called biotin labelled hFc tagged human LAG3 ECD; not shown: human IgG Fc tag
T1 sequence (looked up): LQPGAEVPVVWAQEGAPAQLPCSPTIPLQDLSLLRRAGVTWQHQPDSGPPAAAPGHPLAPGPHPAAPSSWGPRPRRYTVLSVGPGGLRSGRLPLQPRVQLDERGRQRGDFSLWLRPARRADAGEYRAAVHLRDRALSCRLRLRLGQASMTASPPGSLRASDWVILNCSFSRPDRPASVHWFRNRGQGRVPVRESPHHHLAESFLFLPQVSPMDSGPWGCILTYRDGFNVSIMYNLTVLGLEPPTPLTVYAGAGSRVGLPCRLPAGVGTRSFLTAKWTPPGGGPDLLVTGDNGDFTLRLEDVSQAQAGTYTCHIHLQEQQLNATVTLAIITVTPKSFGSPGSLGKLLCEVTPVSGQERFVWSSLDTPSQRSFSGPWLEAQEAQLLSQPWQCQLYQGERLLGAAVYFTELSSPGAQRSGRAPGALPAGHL
Method: (§1) After washing, HRP labeled anti-His 2nd antibody (Sigma) was added and incubated at 37° C. for 1 hour. Then, 100 μl/well of TMB solution (Biotechnology) was added. After incubation for 15 minutes at room temperature, the reaction was stopped by the addition of 50 μl of 1N HCl. OD 450 nm was read. […] After washing, HRP labeled anti-SA 2nd antibody (Sigma) was added and incubated at 37° C. for 1 hour. Then, 100 μl/well of TMB solution (Biotechnology) was added. After incubation for 15 minutes at room temperature, the reaction was stopped by the addition of 50 μl of 1N HCl. OD 450 nm was read. […] The competition assay of format III is a competitive FACS assay. […] After washing, dye labeled anti-His 2nd antibody (Sigma) was added and incubated at 37° C. for 1 hour. Fluorescence intensity was detected.

[2] = biological target: T2, human LAG3 (form used in Octet, Biacore and HDX-MS not given) (human, UniProt P18627 23-450, limits assumed); assay: BLI (Octet)
T2 sequence (looked up): T1 sequence (looked up)

[3] = biological target: T3, mFc tagged human LAG3 ECD recombinant protein (human, UniProt P18627 23-450); assay: competitive FACS: mFc-LAG3 ECD binding to Raji cells (MHC II)
T3 construct: extracellular domain; purchased from Biointron; not shown: mouse IgG Fc (mFc) tag
T3 sequence (looked up): T1 sequence (looked up)
Method: (§2) Activity of the purified chimeric antibodies to block LAG3 and MHC II interaction was determined by competitive FACS assay. […] After washing, dye labeled anti-mouse Fc 2nd antibody (Sigma) was added and incubated at 37° C. for 1 hour. Fluorescence intensity was detected.

[4] = biological target: T4, human LAG3, full length, stably expressed on cells (human, UniProt P18627 23-525); assay: FACS on 293F cells stably expressing human LAG3
T4 construct: whole, on cells; also called CHOK1-human LAG3
T4 sequence (looked up): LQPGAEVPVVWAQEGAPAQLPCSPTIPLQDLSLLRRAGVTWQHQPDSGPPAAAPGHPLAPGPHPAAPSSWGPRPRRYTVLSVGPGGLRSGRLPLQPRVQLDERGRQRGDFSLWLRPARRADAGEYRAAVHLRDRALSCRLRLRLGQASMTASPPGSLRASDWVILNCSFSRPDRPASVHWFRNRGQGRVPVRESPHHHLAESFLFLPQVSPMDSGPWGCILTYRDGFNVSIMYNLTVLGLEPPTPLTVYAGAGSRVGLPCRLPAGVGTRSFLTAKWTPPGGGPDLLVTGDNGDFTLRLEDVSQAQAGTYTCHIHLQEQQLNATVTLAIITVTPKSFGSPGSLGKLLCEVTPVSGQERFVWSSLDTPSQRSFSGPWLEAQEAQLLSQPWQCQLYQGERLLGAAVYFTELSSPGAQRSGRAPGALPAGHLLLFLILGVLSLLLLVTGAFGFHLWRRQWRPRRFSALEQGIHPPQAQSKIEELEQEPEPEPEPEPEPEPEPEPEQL
Method: (§3) Briefly the antibodies were incubated with 2×10⁵ target cells at 4° C. for 1 hour. After washing, fluorescence labeled anti-mouse IgG 2nd antibody (Life Technologies) was added and incubated at 4° C. for 1 hour. Geometric median fluorescence intensity (MFI) was detected and EC₅₀ was calculated using GraphPad Prism9.0.
(§4) MFI was detected and EC₅₀ was calculated using GraphPad Prism9.0.

[5] = biological target: T5, human LAG3 ECD recombinant protein (plate coated, tag not stated) (human, UniProt P18627 23-450); assay: competitive ELISA format I: His-FGL1 binding to coated LAG3 ECD
T5 construct: extracellular domain
T5 sequence (looked up): T1 sequence (looked up)
Method: as §1

[6] = biological target: T4, human LAG3, full length, stably …; assay: FACS on 293F cells stably expressing human LAG3; remark: listed apart in the source
Method: as §3, §4

[7] = biological target: T3, mFc tagged human LAG3 ECD recombinant …; assay: competitive FACS: mFc-LAG3 ECD binding to Raji cells (MHC II); remark: listed apart in the source
Method: as §2

[8] = biological target: T2, human LAG3 (form used in Octet, Biacore …); assay: BLI (Octet), 1:1 fit
Method: The purified chimeric antibodies were characterized for binding affinity against human LAG3 using Bio-Layer Interferometry technology (Octet system). The association and dissociation curves were fit with 1:1 binding model, and the Ka/Kd/KD values for each antibody were calculated.

B2: hu023.10 (antibody, human IgG4, V domains shown)
VH: QVQLVQSGPELKKPGASVKVSCKASGYTFTESPMNWVRQAPGQGFEWMGIIYTDTGEPTYAEEFKGRFVFSLDTSVSTAYLQISSLKAEDTAVYFCVSDYGSILYWYFDVWGQGTLVTVSS
VL: DIQMTQSPSSLSASVGDRVTITCKASQDVSTAVAWYQQKPGKAPKLLIYSASYRYTGVPSRFSGSGSGTDFTLTISSLQPEDFATYYCQQHYNAPPTFGQGTKLEIK
notes: humanized from 023c
IC50 [1]: 1.3 nM
TOP blocking (%) [1]: 82.8%
Kd [2]: 0.281 nM
koff [2]: 7.96e-05 s⁻¹
kon [2]: 284000 M⁻¹ s⁻¹
IC50 [3]: 5.9 nM
TOP blocking (%) [3]: 99.2%
EC50 [4]: 0.2 nM
TOP MFI [4]: 3200

B3: hu023.13 (antibody, human IgG4, V domains shown)
VH: B2 VH with V2I, V20I
VL: B2 VL
notes: humanized from 023c
IC50 [1]: 1.2 nM
TOP blocking (%) [1]: 83.2%
Kd [2]: 0.121 nM
koff [2]: 3.67e-05 s⁻¹
kon [2]: 303000 M⁻¹ s⁻¹
IC50 [3]: 5.7 nM
TOP blocking (%) [3]: 99.3%
EC50 [4]: 0.19 nM
TOP MFI [4]: 3100

B4: 048c (antibody, human IgG4, V domains shown)
VH: EFQVQQSGPELVKPGASVKISCKASGYSFSDYNMNWLKQSTGKSLEWIGLVDPIYGTIRYNQKFKGKATLTVDQSSSTAYMQLNSLTSEDSAVYYCALITTSVRYFDYWGQGTTLTVSS
VL: DVLMTQTPLSLPVSLGDQASISCRSSQNIVHTDGNTYLEWYLQKPGQSPKLLIYKVSNRFSGVPDRFSGSGSGTDFTLKISRVEAEDLGVYYCFQGSHVPPTFGGGTKLEIK
notes: human IgG4 S228P / kappa chimeric antibody; also called chimeric antibody 048; not shown: human kappa light chain constant region (pcDNA3.4-hIgGk vector)
Blocking ratio at 66.7 nM (%) [5]: 41.2%
EC50 [6]: 1.3 nM
TOP MFI [6]: 289
IC50 [7]: 4 nM
TOP blocking (%) [7]: 64.6%

B5: 039c (antibody, human IgG4, V domains shown)
VH: EFQLQQSGPELVKPGASVKISCKASGYSFTDYNLNWVRQSNGKSLEWIGLVDPIYGTIRYNQNFKDKATLTVDQSSSTAYMQLNSLTSEDSAVYYCASIMTAVRYFDHWGQGTTLTVSS
VL: B4 VL with S10F, Q27L, T32S, R82G
notes: human IgG4 S228P / kappa chimeric antibody; also called chimeric antibody 039; not shown: human kappa light chain constant region (pcDNA3.4-hIgGk vector)
Blocking ratio at 66.7 nM (%) [5]: 40.2%
EC50 [6]: 1.3 nM
TOP MFI [6]: 302
IC50 [7]: 4.7 nM
TOP blocking (%) [7]: 62%

B6: 033c (antibody, human IgG4, V domains shown)
VH: EVQLQQSGAELVRPGASVKLSCTASDFNIKDDYIHWVKQRPEQGLEWIGWIDLENGDTEYASKFQGKATITADTSSNTAYLQLSSLTSEDTAVYYCTTKGSHWGQGTLVTVSA
VL: DVVMTQIPLSLPVSLGDQASISCRSSQSLVYSNGNTYLNWYLQKPGQSPKLLIHKVSNRFSGVPDRFSGSGSGTDFTLKISRVEAEDLGVYFCSQSTHVPYTFGGGTKLEIR
notes: human IgG4 S228P / kappa chimeric antibody; also called chimeric antibody 033; not shown: human kappa light chain constant region (pcDNA3.4-hIgGk vector)
Blocking ratio at 66.7 nM (%) [5]: 67.8%
EC50 [6]: 2.4 nM
TOP MFI [6]: 394
IC50 [7]: 3.9 nM
TOP blocking (%) [7]: 95%

Second part, the binder after the results:

IC50 [1]: 1.5 nM
TOP blocking (%) [1]: 81.3%
Kd [2]: 0.591 nM
koff [2]: 0.000153 s⁻¹
kon [2]: 259000 M⁻¹ s⁻¹
IC50 [3]: 5.5 nM
TOP blocking (%) [3]: 99.2%
EC50 [4]: 0.32 nM
TOP MFI [4]: 2990
B1: hu023.07 (antibody, human IgG4, V domains shown)
VH: QVQLVQSGPEVKKPGASVKVSCKASGYTFTESPMNWVRQAPGQGFEWMGIIYTDTGEPTYAEEFKGRVTMTLDTSTSTVYMELSSLRSEDTAVYFCASDYGSILYWYFDVWGQGTLVTVSS
VL: B2 VL
notes: humanized from 023c

Kd [8]: 2.72 nM
koff [8]: 0.000674 s⁻¹
kon [8]: 248000 M⁻¹ s⁻¹
EC50 [6]: 2.6 nM
TOP MFI [6]: 247
IC50 [7]: 12.4 nM
TOP blocking (%) [7]: 96%
B7: TSR-033 (antibody, V domains shown)
VH: EVQLVQSGAEVKKPGATVKISCKASGFSIKDDYIHWVQQAPGKGLEWMGWIDAMNDDSQYSSKFQGRVTITVDTSTNTAYMKLSSLRSEDTAVYYCTYAFGGYWGQGTTVTVSS
VL: DIVMTQTPLSLSVTPGQPASISCRSSQSLVHSDSNTYLHWYLQKPGQSPQLLIYLVSNRFSGVPDRFSGSGSGTDFTLKISRVEAEDVGVYFCGQSTHVPYAFGGGTKVEIK
